Results on 2 molecules are retold here after patent US8809287B2, “Compositions and methods for altering Wnt autocrine signaling” (Icahn School of Medicine at Mount Sinai, priority 2004, dated 2014).

Entries after “also recorded” stand apart in the source; their conditions may differ.

Common to all, as to assay type: cell-based, human
In one test the test system is keratin 8. Put plainly: RNA blot of keratin 8 in MDAMB157 cells. The following applies: stable expression. The procedure: (§1) Total RNAs from MDAMB157 cells exogenously expressing vector alone, FRP1, or DKK1 were extracted using Triazol (Invitrogen), separated by agarose gel electrophoresis (1% agarose gel) and transferred to a nylon membrane (Hybond, Pharmacia). Probes were labeled by the Random Prime Labelling System method (Amersham Biosciences), and hybridization was performed overnight utilizing the Hybrisol I solution (Serologicals Corporation) according to the manufacturer's instructions. Normalization was performed utilizing a commercial human GADPH control probe (BD Biosciences Clontech). Probes were labelled with α-^32P-dCTP.
(§2) Since canonical Wnt signaling appears to be involved in maintaining epithelial progenitor cells of several tissues (van de Wetering et al. (2002) Cell 111:241-250; Alonso and Fuchs (2003) Genes Dev. 17:1189-1200; Reya et al. (2003) Nature 423:409-414; Polesskaya et al. (2003) Cell 113, 841-852), including the mouse mammary gland (Li et al. (2003) Proc Natl Acad Sci U.S.A. 100:15853-15858; Liu et al. (2004) Proc. Nat'l Acad. Sci. U.S.A. 101:4158-4163), we also investigated whether downregulation of Wnt signaling in MDAMB157 tumor cells affected their differentiated state. […] All of these findings provide evidence for a Wnt autocrine transforming mechanism in human tumor cells.

The subject of test [1] is uncomplexed β-catenin. Description: Uncomplexed β-catenin in MDAMB157 breast tumor cells. Also noted: levels of uncomplexed β-catenin: dose or concentration left out as unconfirmed. The following applies: for uncomplexed β-catenin levels: stable expression by retroviral mediated transduction. The procedure:
(§3) β-catenin levels were assessed using the GST-E-cadherin binding assay, which has been previously described (Bafico et al., (1998) Oncogene 16:2819-2825). Briefly, bacterially expressed GST-E-cadherin was purified with glutathione-Sepharose beads and incubated with 1 mg of each cell lysate. The GST-E-cadherin/[…]-catenin complex bound to the beads was recovered by centrifugation and analyzed by SDS-PAGE followed by immunoblotting. The uncomplexed β-catenin was detected using a monoclonal antibody to β-catenin (Transduction Laboratories). Unphosphorylated β-catenin was detected with a monoclonal antibody specific for β-catenin dephosphorylated at residues 27-37 (Alexis, Läufelfingen, Switzerland). FRP1-HA and DKK1-HA were detected with an anti-HA monoclonal antibody (Hybridoma Center, Mount Sinai School of Medicine, New York).
MDAMB157 cell cultures were exposed to increasing concentrations of purified DKK1, and then were solubilized and analyzed for uncomplexed β-catenin using immunoblot analysis and an anti-[…]-catenin antibody as described in Example 3.
MDAMB157 cells were infected with vector alone, FRP1-HA (described in Example 1), or DKK1-HA (described in Example 1) retroviruses and marker selected. Uncomplexed β-catenin protein levels were analyzed using immunoblot analysis with an anti-β-catenin antibody as described in Example 3. Expression of FRP1-HA or DKK1-HA were assessed by immunblot analysis of lysates using an anti-HA monoclonal antibody (Hybridoma Center, Mount Sinai School of Medicine, New York).

The next test has as its system MDAMB157 cells. Put plainly: Saturation density (cell counts) of MDAMB157 cells. The note with it: MDAMB157 over-expressing antagonist vs vector transduced parental cells. How it is done: MDAMB157 cells exogenously expressing either vector control, FRP1 or DKK I were transferred at 1.5×10^5 cells per well in 6-well plates. Cell counts were performed in duplicate at the indicated times, and values represent the mean of two independent experiments.

The next test has as its system ID2. Description: Northern blot of ID2 in MDAMB157 cells. The following applies: stable expression. The procedure: (§4) Alterations in the expression of a number of genes identified as targets of canonical Wnt signaling have been reported, although it should be noted that there is variability among Wnt target genes in different cell systems (Giles et al., (2003). Biochim. Biophys. Acta 1653:1-24). To investigate the effects of FRP1 and DKK1 inhibition on gene expression in MDAMB157 breast tumor cells, Northern blot analysis was performed on representative Wnt transcriptional targets, including Myc (He et al., (1998) Science 281:1509-1512), the LEF-1 transcription factor (Filali et al., (2002) J. Biol. Chem. 277:33398-33410) and the dominant negative helix-loop-helix transcriptional regulator, Id2 (Rockman et al., (2001) J. Biol. Chem. 276:45113-45119).
as §1

The subject of another test is H1355. Put plainly: tBh-induced apoptosis in H1355 NSCLC cells. The following applies: H1355 NSCLC cells (data not shown). The procedure:
(§5) To assess the effects of Wnt inhibition by FRP1 or DKK1 on the response of MDAMB157 cells to apoptotic stimuli, we exposed AB589 or MDAMB157 cells expressing either vector control, FRP1 or DKK1 to increasing concentrations of tert-butyl hydroperoxide (tBh) (Sigma) a known inducer of oxidative stress that causes DNA damage through reactive oxygen species (ROS) (Macip et al., (2003) Mol. Cell. Biol. 23:8576-8585), and analyzed the apoptotic response. Sub-confluent cultures were treated with increasing amounts of tert-butyl hydroperoxide (tBH) for 2 hours. Twenty-four hours later, cells were washed in PBS, trypsinized and incubated with Annexin and PI using the Annexin-V-Fluos Staining kit (Roche). Fluorescent stained cells were subjected to FACS (Beckton Dickinson FACScan) using Cell Quest 3.2 software (Beckton Dickinson) for acquisition and analysis.
We have also tested the effects of tBh on lung tumor cells with autocrine Wnt signaling in the presence or absence of the Wnt antagonists FRP and DKK. […] These findings indicate that inhibition of a Wnt autocrine signaling mechanism in tumor cells by Wnt antagonists such as FRP or DKK would make them more sensitive to the killing effects of standard chemo or irradiation therapies. We noted that levels of expression of these antagonists decreased with passage of the transfected and marker selected tumor cells.

Another test concerns MYC. Put plainly: Northern blot of MYC in MDAMB157 cells. The note with it: stable expression. How it is done:
as §4, §1

The test system of test [2] is uncomplexed β-catenin. Description: Uncomplexed β-catenin in Wnt autocrine tumor cells (summary statements). The following applies: summary of the Examples. The procedure:
as §3

Another test relates to LEF-1. Put plainly: Northern blot of LEF-1 in MDAMB157 cells. The following applies: stable expression. The procedure:
as §4, §1

The subject of a further test is cyclin D1. Description: Northern blot of cyclin D1 in MDAMB157 cells. The note with it: stable expression (data not shown). How it is done:
as §4
as §1, with “α-^32P-dCTP. […]” for “α-^32P-dCTP.”

A further test concerns keratin 18. Description: RNA blot of keratin 18 in MDAMB157 cells. The following applies: stable expression. How it is done: as §1, §2
For another test, the system named is AB589 cells. Put plainly: tBh-induced apoptosis (Annexin/PI FACS) in AB589 cells. How it is done:
as §5

B1: DKK1: Dickkopf-1, secreted Wnt antagonist protein that binds Wnt co-receptor LRP6; used purified, in conditioned media or retrovirally expressed with HA tag (protein, UniProt O94907 32-266, looked up)
Dickkopf-related protein 1: TLNSVLNSNAIKNLPPPLGGAAGHPGSAVSAAPGILYPGGNKYQTIDNYQPYPCAEDEECGTDEYCASPTRGGDAGVQICLACRKRRKRCMRHAMCCPGNYCKNGICVSSDQNHFRGEIEETITESFGNDHSTLDGYSRRTTLSSKMYHTKGQEGSVCLRSSDCASGLCCARHFWSKICKPVLKEGQVCTKHRRKGSHGLEIFQRCYCGEGLSCRIQKDHHQASNSSRLHTCQRH
modifications: HA tag in some uses
As for B1, in the test on keratin 8, the “expression of keratin 8” value is reported as “striking increase”. Besides, the “levels of uncomplexed β-catenin” value in the test with uncomplexed β-catenin [1] (increasing concentrations of purified DKK1) is recorded as “dose dependent, marked reduction”. Also, the “uncomplexed β-catenin levels” value with uncomplexed β-catenin [1] is reported as “dramatic reduction”. The saturation density entry in the test with MDAMB157 cells is “decreased saturation density”. In addition, in the test on ID2, the “expression of ID2” value was “reduced”. The “sensitivity to induction of apoptosis by tBh” value in the test with H1355 is “more sensitive to induction of apoptosis”. For the same molecule, the “expression of MYC” value in the test on MYC is “reduced”. Moreover, the “up regulated uncomplexed β-catenin levels” value with uncomplexed β-catenin [2] is “down regulation; also recorded: striking reduction”. In addition, the “expression of LEF-1” value in the test on LEF-1 was “reduced”. In addition, in the test on cyclin D1, the “levels of cyclin D1” value is recorded as “did not observe significant changes”. Further, in the test on keratin 18, the “keratin 18 levels” value is recorded as “increase”. Also, the “apoptotic responses compared to the vector infected cells” value in the test with AB589 cells was “no detectable differences”.

B2: FRP1: human secreted Frizzled Related Protein 1, Wnt antagonist; expressed from pBabe-derived retrovirus with carboxy-terminal HA tag (protein, UniProt Q8N474 32-314, looked up)
Secreted frizzled-related …: SEYDYVSFQSDIGPYQSGRFYTKPPQCVDIPADLRLCHNVGYKKMVLPNLLEHETMAEVKQQASSWVPLLNKNCHAGTQVFLCSLFAPVCLDRPIYPCRWLCEAVRDSCEPVMQFFGFYWPEMLKCDKFPEGDVCIAMTPPNATEASKPQGTTVCPPCDNELKSEAIIEHLCASEFALRMKIKEVKKENGDKKIVPKKKKPLKLGPIKKKDLKKLVLYLKNGADCPCHQLDNLSHHFLIMGRKVKSQYLLTAIHKWDKKNKEFKNFMKKMKNHECPTFQSVFK
modifications: C-terminal HA tag
notes: human secreted Frizzled Related Protein 1, Wnt antagonist; expressed from pBabe-derived retrovirus with carboxy-terminal HA tag
Consider B2, for which the “expression of keratin 8” value with keratin 8 is “striking increase”. Moreover, in the test with uncomplexed β-catenin [1], the “uncomplexed β-catenin levels” value is reported as “dramatic reduction”. The saturation density result with MDAMB157 cells is on record as “decreased saturation density”. Moreover, the “expression of ID2” value in the test on ID2 is given as “reduced”. Also, in the test with H1355, the “sensitivity to induction of apoptosis by tBh” value was “more sensitive to induction of apoptosis”. In addition, the “expression of MYC” value with MYC is “reduced”. The “up regulated uncomplexed β-catenin levels” value with uncomplexed β-catenin [2] is reported as “down regulation”. For the same molecule, the “expression of LEF-1” value with LEF-1 is “reduced”. Besides, the “levels of cyclin D1” value in the test on cyclin D1 is recorded as “did not observe significant changes”. Moreover, in the test with keratin 18, the “keratin 18 levels” value is on record as “increase”. Besides, the “apoptotic responses compared to the vector infected cells” value in the test on AB589 cells was “no detectable differences”.
